# Data: article PMC9834230, “The HAPSTR2 retrogene buffers stress signaling and resilience in mammals” (Nature Communications, 2023)
# B1: recombinant maltose-binding protein (MBP)-tagged HAPSTR2 (natural protein, human, UniProt A0A7P0TBJ1 1-273, looked up)
# chain: MEEQQKEGEAEVAEHWFSKWERQCLAEAEQEEQLPPELQEEAAAELAGLKSEKQKLWHLFQISATAVAQLYKDSGCQQQGLSMWDPFQNAAMAVTSLYKESGDAHQRSFDLGVQVGHQRRIKDVLEWVKKGRSTIRREDLISFLCGKVPPAPPPPRTPRTPPKPPTGVTSQAVATESSSSVDVDLQPFQEAIALHGLSGAMAGISMRSGDSPQDSGVASSGRRKTSFLEDDLNPFDSEELALHLDSGGIRKRTSAQCSDGITDSPIQKRNRMV
# notes: HAPSTR2, human; Vector pDest-HisMBP (Addgene 11085); No cleavage of the tags is described; Homo-oligomer by SEC; also called MBP-HAPSTR2; H2; source: E. coli BL21 (DE3), purified (Ni-NTA, dialysis); not shown: MBP, N-terminal, kept
# Biological target: the molecule itself
# Assay: SEC; analytical; 500 µg protein on Superdex 200 Increase 10/300 GL in PBS with 1 mM DTT, 0.3 mL/minute, 4 °C; stoichiometry estimated against standards
protein,measurement,value
B1,binding result,binds
